# Tested on: dPsCas13b-133FSY (in HEK293T) A133FSY (fluorosulfate-L-tyrosine) (Prevotella sp. P5-125)
# Assay: pulldown
# Settings: RIP RT-qPCR in HEK293T; no enrichment without crRNA
substance,measurement,value
crACTB guide ; ACTB mRNA,binding signal (fold over dPsCas13b-WT),4

# From patent US20240262791
